Measurements as given in US20160046944, “APTAMER TO IL-17 AND USE THEREOF” (THE UNIVERSITY OF TOKYO, published 2016).
Residue numbers refer to the chain shown, from its start.

T1: IL-17 (Homo sapiens, UniProt Q16552 Q16552:24-155)
T1 sequence: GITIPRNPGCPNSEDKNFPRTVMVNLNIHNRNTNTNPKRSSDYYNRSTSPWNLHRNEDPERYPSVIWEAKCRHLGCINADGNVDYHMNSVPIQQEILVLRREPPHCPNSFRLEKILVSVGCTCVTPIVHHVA

T2: IL-17 (IL-17A) (Homo sapiens, UniProt Q16552 Q16552:24-155)
T2 sequence: T1 sequence

B1: aptamer No. 77 (mixed)
RNA: GGGUAGCCGGAGGAGUCAGUAAUCGGUACCC
modifications: 2'-OMe (M), 2'-F (F) as marked; uppercase DNA [2'-OMe: 1-5,7,8,10,13,14,21-26,29-31; 2'-F: 11,16,17,18,20,27; DNA: 28]
B2: aptamer No. 78 (mixed)
mixed: B1 RNA with U16T, U20T
modifications: 2'-OMe (M), 2'-F (F) as marked; uppercase DNA [2'-OMe: 1-5,7,8,10,13,14,21-31; 2'-F: 11,17,18; DNA: 9,16,20]
B3: aptamer No. 82 (mixed)
mixed: B1 RNA with U16T, U20T
modifications: 2'-OMe (M), 2'-F (F), PS (S) as marked; uppercase DNA [2'-OMe: 1-5,7,8,10,11,13,14,21-31; 2'-F: 17,18; PS: 6,15,19; DNA: 9,16,20]
B4: aptamer No. 75 (mixed)
mixed: B1 RNA with U16T, U20T
modifications: 2'-OMe (M), 2'-F (F) as marked; uppercase DNA [2'-OMe: 1-5,7,8,10,13,14,21-26,28-31; 2'-F: 11,17,18,27]
B5: aptamer No. 79 (ssRNA)
RNA: B1 RNA
modifications: 2'-OMe (M), 2'-F (F) as marked [2'-OMe: 1-5,7,8,10,13,14,21-31; 2'-F: 11,16,17,18,20]
B6: aptamer No. 92 (mixed)
RNA: B1 RNA
modifications: 2'-OMe (M), 2'-F (F), PS (S) as marked; uppercase DNA [2'-OMe: 1-5,7,8,10,11,13,14,22-26,28-31; 2'-F: 16-18,20,27; PS: 6,15,19; DNA: 9]
B7: aptamer No. 80 (mixed)
RNA: B1 RNA
modifications: 2'-OMe (M), 2'-F (F), PS (S) as marked; uppercase DNA [2'-OMe: 1-5,7,8,10,13,14,21-26,29-31; 2'-F: 11,16,17,18,20,27; PS: 6; DNA: 9,28]
B8: aptamer No. 69 (mixed)
RNA: B1 RNA
modifications: 2'-OMe (M), 2'-F (F), PS (S) as marked; uppercase DNA [2'-OMe: 1-5,7,8,10,13,14,21-26,28-31; 2'-F: 11,16,17,18,20,27; PS: 6]
B9: aptamer No. 54 (mixed)
RNA: B1 RNA
modifications: 2'-OMe (M), 2'-F (F), PS (S) as marked; uppercase DNA (U = deoxyuridine) [2'-OMe: 1,2,3,4,7,8,10,13,14,21,22,23,24,25,26,28; 2'-F: 11,17,18,27; PS: 6; dU: 16,20]
B10: aptamer No. 63 (mixed)
mixed: B1 RNA with U16T, U20T
modifications: 2'-OMe (M), 2'-F (F), PS (S) as marked; uppercase DNA [2'-OMe: 1,2,3,4,5,7,8,10,13,14,21,22,23,24,25,26,28,29,30,31; 2'-F: 11,17,18,27; PS: 6,15,19]
B11: aptamer No. 58 (mixed)
mixed: B1 RNA with U16T, U20T
modifications: 2'-OMe (M), 2'-F (F), PS (S) as marked; uppercase DNA [2'-OMe: 1,2,3,4,7,8,10,13,14,19,21,22,23,24,25,26,28; 2'-F: 11,17,18,27; PS: 6,12,15]
B12: aptamer No. 84 (mixed)
RNA: B1 RNA
modifications: 2'-OMe (M), 2'-F (F), PS (S) as marked; uppercase DNA [2'-OMe: 1-5,7,8,10,11,13,14,21-31; 2'-F: 16,17,18,20; PS: 6,15,19; DNA: 9]
B13: aptamer No. 53 (mixed)
mixed: B1 RNA with U16T, U20T
modifications: g(M)g(M)g(M)u(M)Ag(S)c(M)c(M)Gg(M)a(F)gg(M)a(M)gTc(F)a(F)g(S)Ta(M)a(M)u(M)c(M)g(M)g(M)u(F)a(M)CCC
B14: aptamer No. 27 (mixed)
mixed: B1 RNA with U16T, U20T, U27T
modifications: 2'-OMe (M), 2'-F (F), PS (S) as marked; uppercase DNA [2'-OMe: 1,2,3,4,7,8,10,13,14,21,23,24,25,26,28,29,30,31; 2'-F: 17; PS: 6]
B15: aptamer No. 32 (mixed)
mixed: B1 RNA with U16T, U20T, U27T
modifications: 2'-OMe (M), 2'-F (F) as marked; uppercase DNA [2'-OMe: 1,2,3,4,7,8,10,13,14,21,22,23,24,25,26; 2'-F: 17]
B16: aptamer No. 48 (mixed)
mixed: B1 RNA with U16T, U20T
modifications: 2'-OMe (M), 2'-F (F) as marked; uppercase DNA [2'-OMe: 1-4,7,8,10,13,14,23-26,28; 2'-F: 17,27]
B17: aptamer No. 39 (mixed)
mixed: B1 RNA with U16T, U20T, U27T
modifications: 2'-OMe (M), 2'-F (F) as marked; uppercase DNA [2'-OMe: 1-4,7,8,10,13,14,22-26,28-31; 2'-F: 17]
B18: aptamer No. 28 (mixed)
mixed: B1 RNA with U16T, U20T, U27T
modifications: 2'-OMe (M), 2'-F (F) as marked; uppercase DNA [2'-OMe: 1,2,3,4,7,8,10,13,14,23,24,25,26,28,29,30,31; 2'-F: 17]
B19: aptamer No. 47 (mixed)
mixed: B1 RNA with U16T, U20T
modifications: 2'-OMe (M), 2'-F (F) as marked; uppercase DNA [2'-OMe: 1-4,7,8,10,13,14,23-26,28; 2'-F: 11,17,18,27]
B20: aptamer No. 37 (mixed)
mixed: B1 RNA with U16T, U20T, U27T
modifications: 2'-OMe (M), 2'-F (F) as marked; uppercase DNA; (NI) printed, likely (M) [2'-OMe: 1,2,3,4,7,10,13,14,23,24,25,26,28,29,30,31; 2'-F: 17; 8 printed (NI), likely 2'-OMe]
B21: aptamer No. 33 (mixed)
mixed: B1 RNA with U16T, U20T, U27T
modifications: 2'-OMe (M), 2'-F (F) as marked; uppercase DNA [2'-OMe: 1,2,3,4,7,8,10,13,14,21,23,24,25,26; 2'-F: 17]
B22: aptamer No. 31 (mixed)
mixed: B1 RNA with U16T, U20T, U27T
modifications: 2'-OMe (M), 2'-F (F), PS (S) as marked; uppercase DNA [2'-OMe: 1,2,3,4,7,8,10,13,14,23,24,25,26,29,30,31; 2'-F: 17; PS: 6]
B23: aptamer No. 29 (mixed)
mixed: B1 RNA with U16T, U20T, U27T
modifications: 2'-OMe (M), 2'-F (F) as marked; uppercase DNA [2'-OMe: 1,2,3,4,7,8,10,13,14,21,22,23,24,25,26,28,29,30,31; 2'-F: 17]
B24: aptamer No. 49 (mixed)
mixed: B1 RNA with U16T, U20T
modifications: 2'-OMe (M), 2'-F (F) as marked; uppercase DNA; (PI) printed, likely (M) [2'-OMe: 1-4,7,8,10,14,23-26,28; 2'-F: 17,27; 13 printed (PI), likely 2'-OMe]

What follows are binders tested against T1, IL-17 (assay: SPR; IL-17 150 nM, aptamer 12.5 or 50 nM). Settings: chain copies: 2.
Procedure: Whether the synthesized aptamers inhibit the binding of IL-17 and IL-17 receptor was evaluated by the surface plasmon resonance method.
For the measurement, BIAcore T100 manufactured by GE Healthcare Bio Sciences was used. […] As an analyte, IL-17 (150 nM) and each aptamer (12.5 or 50 nM) shown by Table 3 were mixed, maintained for 15 min and after that the mixture was flown.

Row | Binder | binding signal
1 | B1 | 23.9 % IL-17/IL-17R binding remaining
2 | B2 | 23.3 % IL-17/IL-17R binding remaining
3 | B3 | 5.28 % IL-17/IL-17R binding remaining
4 | B4 | 21.6 % IL-17/IL-17R binding remaining
5 | B5 | 28.2 % IL-17/IL-17R binding remaining
6 | B6 | 31.6 % IL-17/IL-17R binding remaining
7 | B7 | 25.3 % IL-17/IL-17R binding remaining
8 | B8 | 18.4 % IL-17/IL-17R binding remaining
9 | B9 | 25.1 % IL-17/IL-17R binding remaining
10 | B10 | 27.1 % IL-17/IL-17R binding remaining
11 | B11 | 33.7 % IL-17/IL-17R binding remaining
12 | B12 | 27.7 % IL-17/IL-17R binding remaining

What follows are binders tested against T2, IL-17 (IL-17A) (assay: cell_activity; IL-6 release, NIH3T3). Settings: chain copies: 2.
Procedure: First, human IL-17 and the aptamer produced in Example 1-2 were pre-incubated at 37° C. for 30 min, and added to NIH3T3 cell (ATCC, CRL1658) together with mouse TNFα (2 ng/mL). Then, after incubation for 24 hr, the culture supernatant was collected, and the production amount of IL-6 was measured by ELISA method described below. The IL-17 inhibitory action of each aptamer was determined from the production amount of IL-6. For comparison with the aptamer of the present invention, a conventionally-known aptamer (aptamer No. 50) against IL-17 was used.
ELISA method for verifying IL-17 inhibitory action of aptamer: A microtiter plate for ELISA was coated with rat anti-mouse IL-6 antibody (BD Biosciences, 2 μg/mL; 100 μL/well) diluted with PBS, and incubated at 4° C. overnight. The next day, the microtiter plate was washed 3 times with PBS/0.05% Tween 20, and applied blocking with PBS/1% BSA (200 μL/well) at room temperature for 2 hr. Then, the plate was washed 3 times with PBS/0.05% Tween 20. Recombinant mouse IL-6 (BD Biosciences; 100 μL/well) serially diluted with PBS/1% BSA/0.05% Tween 20 or culture supernatants (100 μL/well) were added to the plate. After incubation at room temperature for 2 hr, the plate was washed 3 times with PBS/0.05% Tween 20. Then, 100 μL/well of biotin conjugated rat anti-mouse IL-6 antibody (BD Biosciences) was added to the plate at final dilution of 1/500, and the mixture was reacted at room temperature for 1 hr. After washing 3 times with PBS/0.05% Tween 20, 100 μL/well of alkaline phosphatase conjugated streptavidin was added at final dilution of 1/1000. After 30 min at room temperature, the plate was again washed 4 times with PBS/0.05% Tween 20, and a substrate (1-Step PNPP; Thermo Fisher Scientific Inc; 100 μL/well) was added. After 15 min, aqueous sodium hydroxide solution (2N: 50 μL/well) was added to stop the reaction, and the plate was read on a microtiter reader (Bio-Rad) by using a 405 nm filter.

Row | Binder | IC50 [nM]
13 | B13 | 1.67

These binders were tested against T1, IL-17 (assay: SPR; IL-17R-Fc on chip). Settings: chain copies: 2.
Procedure: Whether aptamers shown by aptamer Nos. 1-49 inhibit the binding of IL-17 and IL-17 receptor was evaluated by the surface plasmon resonance method.
For the measurement, BIAcore2000 manufactured by BIAcore was used. […] As an analyte, IL-17 (100 or 150 nM) and an aptamer (50 or 100 nM) shown by aptamer No. 1-49 were mixed, maintained for 15 min and after that the mixture was flown.

Row | Binder | binding signal
14 | B14 | 13.3 % IL-17/IL-17R binding remaining
15 | B15 | 13.2 % IL-17/IL-17R binding remaining
16 | B16 | 19.2 % IL-17/IL-17R binding remaining
17 | B17 | 14.8 % IL-17/IL-17R binding remaining
18 | B18 | 13.2 % IL-17/IL-17R binding remaining
19 | B19 | 17.6 % IL-17/IL-17R binding remaining
20 | B20 | 15.5 % IL-17/IL-17R binding remaining
21 | B21 | 15.9 % IL-17/IL-17R binding remaining
22 | B22 | 16.2 % IL-17/IL-17R binding remaining
23 | B23 | 13.3 % IL-17/IL-17R binding remaining
24 | B24 | 19 % IL-17/IL-17R binding remaining
